For experiment [1], the target named is ABI1 without tag (purified recombinant) (Arabidopsis) (UniProt P49597). The experiment can be described thus: cell-based or functional assay.
The target in experiment [2] is T1, PYL13 fused to the GAL4-activating domain (AD) (Arabidopsis thaliana, UniProt Q9SN51 1-164).
T1 construct: also called AD-PYL13
T1 sequence: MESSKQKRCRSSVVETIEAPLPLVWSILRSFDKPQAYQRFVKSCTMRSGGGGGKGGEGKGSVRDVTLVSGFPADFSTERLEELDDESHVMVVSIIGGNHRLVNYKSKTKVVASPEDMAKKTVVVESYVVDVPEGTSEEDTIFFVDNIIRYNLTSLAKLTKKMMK
Put plainly: yeast two-hybrid, growth on media lacking His and His/Ade, with and without ABA. On the procedure:
To confirm the interaction between PYL13 and PYL2/PYL9 and to determine whether PYL13 may bind with other PYLs, the interaction of PYL13 with PYLs was examined in yeast two-hybrid assays, as shown in FIG. 5. In this experiment, PYL13 interacted with PYR1, PYL1-4, PYL6, and PYL11-12 in an ABA-independent manner (FIG. 5A). PYL13 fused to the GAL4-activating domain (AD) was used as prey, and PYLs fused to the GAL4-DNA binding domain (BD) were used as baits. Interaction was determined by growth assay on media lacking His and His/Ade in the presence and absence of ABA. Dilutions (10⁻¹, 10⁻², and 10⁻³) of saturated cultures were spotted onto the plates, which were photographed after five days. […] Without wishing to be bound by theory, the lack of interaction between […] and PYL9 may be caused by the cellular differences between yeast and Arabidopsis or because of indirect interactions between the two proteins in Arabidopsis.

ABI1 without tag (purified recombinant) (Arabidopsis), sequence (P49597 whole entry, the tested form may be a part): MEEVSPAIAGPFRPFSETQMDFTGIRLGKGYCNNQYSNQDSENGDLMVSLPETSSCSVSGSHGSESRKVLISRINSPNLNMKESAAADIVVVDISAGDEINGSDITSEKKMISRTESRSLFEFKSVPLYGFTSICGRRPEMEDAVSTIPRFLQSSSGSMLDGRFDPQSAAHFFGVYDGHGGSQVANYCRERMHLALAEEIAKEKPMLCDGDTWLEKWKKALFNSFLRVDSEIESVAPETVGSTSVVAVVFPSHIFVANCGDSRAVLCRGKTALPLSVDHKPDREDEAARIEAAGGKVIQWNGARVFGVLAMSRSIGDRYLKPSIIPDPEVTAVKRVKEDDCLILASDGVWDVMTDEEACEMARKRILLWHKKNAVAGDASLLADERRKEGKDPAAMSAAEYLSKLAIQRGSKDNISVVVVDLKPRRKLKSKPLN

As for “PYL2 (purified recombinant protein, phosphatase assay) (from UniProt O80992 1-190) (receptor)”, the ABI1 phosphatase activity (pNPP, A405, % of ABI1 without ABA and PYLs), 10 µM ABA, 0.3 µM each in experiment [1] stood at 50%.

With “PYL1 (purified recombinant protein, phosphatase assay) (from UniProt Q8VZS8 1-221) (receptor)”, the ABI1 phosphatase activity (pNPP, A405, % of ABI1 without ABA and PYLs), 10 µM ABA, 0.3 µM each in experiment [1] came out at 67%.

Take “PYL13-PYL2 protein complex (from UniProt Q9SN51 1-164; O80992 1-190)”: in experiment [1], the ABI1 phosphatase activity (pNPP, A405, % of ABI1 without ABA and PYLs), 10 µM ABA worked out at 78%. The same measure, in the same setting: as for “PYL13-PYL1 protein complex (from UniProt Q9SN51 1-164; Q8VZS8 1-221)”, the figure is 88%.

B1: PYL12 fused to the GAL4-DNA binding domain (BD) (receptor, not shown: large carriers; small tags and cut ends)
chain: MKTSQEQHVCGSTVVQTINAPLPLVWSILRRFDNPKTFKHFVKTCKLRSGDGGEGSVREVTVVSDLPASFSLERLDELDDESHVMVISIIGGDHRLVNYQSKTTVFVAAEEEKTVVVESYVVDVPEGNTEEETTLFADTIVGCNLRSLAKLSEKMMELT
notes: Yeast two-hybrid construct
As for B1, in experiment [2], the binding result is reported as “binds”.

B2: PYL11 fused to the GAL4-DNA binding domain (BD) (receptor, not shown: small tags and cut ends)
chain: METSQKYHTCGSTLVQTIDAPLSLVWSILRRFDNPQAYKQFVKTCNLSSGDGGEGSVREVTVVSGLPAEFSRERLDELDDESHVMMISIIGGDHRLVNYRSKTMAFVAADTEEKTVVVESYVVDVPEGNSEEETTSFADTIVGFNLKSLAKLSERVAHLKL
notes: Yeast two-hybrid construct
On to B2, for which the binding result in experiment [2] is given as “binds”.
